Measurements published in PMC4690985.

Legend:
[1] = target: TNH αβγ trimer (Streptomyces rimosus) (UniProt B6CWJ3); experiment: native MS
[2] = target: Toyocamycin nitrile hydratase (TNH) α subunit (Streptomyces rimosus) (UniProt B6CWJ3); experiment: native MS

TNH αβγ trimer (from UniProt B6CWJ3 1-195) (complex)
stoichiometry N [1]: 2

Toyocamycin nitrile hydratase (TNH) β subunit (natural protein)
abundance of the αβ dimer among the SID products (αβγ trimer = 100%) [2]: 32%
